From patent publication US12415868 (MINERVA BIOTECHNOLOGIES, dated 2025)

T1: recombinant human NME7AB (human, UniProt Q9Y5B8 92-376)
T1 construct: also called NME-AB; NME7 (in several passages)
T1 sequence: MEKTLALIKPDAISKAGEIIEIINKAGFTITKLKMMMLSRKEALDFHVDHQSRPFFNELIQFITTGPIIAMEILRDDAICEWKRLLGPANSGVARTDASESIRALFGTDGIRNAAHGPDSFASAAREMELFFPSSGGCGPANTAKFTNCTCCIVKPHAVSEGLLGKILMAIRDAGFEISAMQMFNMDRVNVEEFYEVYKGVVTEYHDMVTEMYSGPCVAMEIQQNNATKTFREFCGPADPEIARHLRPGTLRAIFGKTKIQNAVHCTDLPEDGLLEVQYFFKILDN

B1: PSMGFR peptide (MUC1* extra cellular domain peptide) (peptide)
peptide: GTINVHDVETQFNQYKTEAASRYNLTISDVSVSDVPFPFSAQSGA
notes: For the other ELISAs only surface-immobilized peptide is stated; also called MUC1* peptide; FLR
B2: anti-NME7 monoclonal antibody 8F9A5A1 (antibody, V domains shown)
VH: IQLVQSGPELKKPGETVKISCKASGYTFTNYGMNWVKQAPGKGLKWMGWINTYTGEPTYVDDFKGRFAFSLETSATTAYLQINNLKNEDTSTYFCARLRGIRPGPLAYWGQGTLVTVSA
VL: EILLTQSPAIIAASPGEKVTITCSASSSVSYMNWYQQKPGSSPKIWIYGISNLASGVPARFSGSGSGTSFSFTINSMEAEDVATYYCQQRSSYPPTFGGGTKLEIKR
notes: Mouse monoclonal

Legend:
[1] = target: T1, recombinant human NME7AB; experiment: ELISA sandwich assay, HRP signal (FIG. 1A-1B)
Experimental: Example 3—ELISA Assay Showing NME7$AB$ Simultaneously Binds to Two MUC1* Extra Cellular Domain Peptides Results are shown in FIG. 1. The PSMGFR peptide bearing a C-terminal Cysteine (PSMGFR-Cys) was covalently coupled to BSA using Imject Maleimide activated BSA kit (Thermo Fisher). PSMGFR-Cys coupled BSA was diluted to 10 ug/mL in 0.1M carbonate/bicarbonate buffer pH 9.6 and 50 uL was added to each well of a 96 well plate. After overnight incubation at 4° C., the plate was washed twice with PBS-T and a 3% BSA solution was added to block remaining binding site on the well. After 1 h at RT the plate was washed twice with PBS-T and NME7, diluted in PBS-T+1% BSA, was added at different concentrations. After 1h at RT the plate was washed 3× with PBS-T and anti-NM23-H7 (B-9). Santa Cruz. […] After 1 h at RT the plate was washed 3× with PBS-T and binding of NME7 was measured at 415 nm using ABTS solution (Pierce).
After 1 h at RT the plate was washed 3× with PBS-T and His-Tagged PSMGFR peptide (PSMGFR-His) or biotinylated PSMGFR peptide (PSMGFR-biotin), diluted in PBS-T+1% BSA, was added at different concentration. […] After 1 h at RT the plate was washed 3× with PBS-T and binding of PSMGFR peptide to NME7 already bound to another PSMGFR peptide (which could not signal by anti-His antibody or by streptavidin) coupled BSA was measured at 415 nm using a ABTS solution (Pierce).

[2] = target: T1, recombinant human NME7AB; experiment: ELISA, plate coated with recombinant NME7AB (FIG. 24)
Experimental: The surface of the multi-well plate was coated with a recombinant $NME7AB$. Anti-$NME7AB$ antibodies were separately added to wells. Standard washes were performed and visualized by adding an HRP-conjugated secondary antibody. […] 7 of the 10 new anti-NME7 antibodies bound strongly to NME7$AB$. […] The surface of the multi-well plate was coated with a recombinant NME1-S120G dimers, which are also known to bind to the MUC1* extra cellular domain. Anti-NME7$AB$ antibodies were separately added to wells. Standard washes were performed and visualized by adding an HRP-conjugated secondary antibody.

Row | Binder | binding result [1] | binding result [2]
1 | B1 | binds | 
2 | B2 |  | binds
